Assay results published in IntAct's records for PubMed 24525235.

Legend:
twst1_human TWIST1 [1] = molecular target: twst1_human TWIST1 (UniProt Q15672)
twst1_human TWIST1 [2] = molecular target: twst1_human TWIST1 (UniProt Q15672); remark: listed apart in the source

Row | Substance | effect of a mutation on the interaction (twst1_human TWIST1 [1]) | effect of a mutation on the interaction (twst1_human TWIST1 [2])
1 | Bromodomain-containing protein 4 (Homo sapiens) (from UniProt O60885-1) D144H | increasing interaction strength | –
2 | Bromodomain-containing protein 4 (Homo sapiens) (from UniProt O60885-1) H437D | – | decreasing interaction strength
